The results in this text go back to patent US20060063223A1 (CHEMOCENTRYX, published 2006).

The target of assay [1] is T1, human CCR1 (C-C chemokine receptor-1) (human, UniProt P32246 1-355).
T1 sequence (looked up): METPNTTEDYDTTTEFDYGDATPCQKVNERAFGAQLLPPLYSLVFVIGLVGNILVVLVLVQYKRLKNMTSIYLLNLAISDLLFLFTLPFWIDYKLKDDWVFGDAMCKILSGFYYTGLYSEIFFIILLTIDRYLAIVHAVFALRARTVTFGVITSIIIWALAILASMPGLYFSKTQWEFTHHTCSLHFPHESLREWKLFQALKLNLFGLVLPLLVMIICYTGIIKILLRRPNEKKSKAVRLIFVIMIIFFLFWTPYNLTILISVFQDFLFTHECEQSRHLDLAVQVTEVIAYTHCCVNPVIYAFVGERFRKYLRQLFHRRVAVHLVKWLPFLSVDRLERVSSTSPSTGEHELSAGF
The assay can be described thus: cell-based or functional assay.

For assay [2], the target named is T1, human CCR1 (C-C chemokine receptor-1). Put plainly: competition with 125I-MIP-1α on human monocytes.
The target is the same in assay [3]. Put plainly: competition with 125I-MIP-1α on human monocytes, 3 hr at 4° C., filter binding. Here is the method: (§1) Binding assay. Competition binding studies were conducted using monocytes, L1.2-CCR1 or L1.2-FPRL1 cells. […] Reactions were aspirated onto PEI-treated GF/B glass filters using a cell harvester (Packard). Filters were washed twice (25 mM HEPES, 500 mM NaCl, 1 mM CaCl₂, 5 mM MgCl₂, adjusted to pH 7.1). Scintillant (MicroScint-10; 35 μl) was added to the filters and counted in a Packard Topcount scintillation counter. Data were analyzed and plotted using Prism (GraphPad Software, San Diego, Calif.).

Assay [4] shares this target. Put plainly: competition with 125I-MIP-1α on L1.2-CCR1 cells, 3 hr at 4° C., filter binding. Here is the method:
as §1

The target of assay [5] is T2, human FPRL1 (formyl peptide receptor like 1) (human, UniProt P25090 1-351).
T2 sequence (looked up): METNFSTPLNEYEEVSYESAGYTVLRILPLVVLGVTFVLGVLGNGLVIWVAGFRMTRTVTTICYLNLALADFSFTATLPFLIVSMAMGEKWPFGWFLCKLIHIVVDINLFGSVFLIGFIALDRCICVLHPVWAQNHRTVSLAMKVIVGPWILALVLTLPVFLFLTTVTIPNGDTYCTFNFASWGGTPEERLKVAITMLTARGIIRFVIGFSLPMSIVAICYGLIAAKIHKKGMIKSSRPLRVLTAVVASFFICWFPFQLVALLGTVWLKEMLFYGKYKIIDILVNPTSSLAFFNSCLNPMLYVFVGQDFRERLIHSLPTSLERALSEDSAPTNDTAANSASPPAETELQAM
Put plainly: cell-based or functional assay.

The target of assay [6] is T2, human FPRL1 (formyl peptide receptor …). Put plainly: competition with 125I-WKYMVm on L1.2-FPRL1 cells, filter binding. How it is done: as §1
For assay [7] the target is unchanged. The assay can be described thus: competition with 125I-WKYMVm on human monocytes, filter binding. Here is the method:
as §1

For assay [8], the target named is T1, human CCR1 (C-C chemokine receptor-1). Put plainly: competition with 125I-MIP-1α on L1.2-CCR1 cells. Here is the method: as §1

A value given as a limit tells only on which side of the number the result lay.

Regarding “CCL5/RANTES (from UniProt P13501 24-91) (ligand)”, in assay [1], the EC50, THP-1 cell migration was determined as 0.5 nM and the fold decrease in potency in THP-1 cell chemotaxis relative to CCL15Δ24/LKN-1 is 3 fold.

B1: CCL23β (ligand)
chain: RVTKDAETEFMMSKLPLENPVLLDMLWRRKIGPQMTLSHAAGFHATSADCCISYTPRSIPCSLLESYFETNSECSKPGVIFLTKKGRRFCANPSDKQVQVCMRMLKLDTRIKTRKN
notes: 116-residue alternatively spliced form; recombinant, special order from R&D Systems; also called CKβ8-1
As for B1, in assay [2], the binding result is recorded as “binds”.

B2: CCL3/MIP-1α (ligand, UniProt P10147 27-92, looked up)
chain: ADTPTACCFSYTSRQIPQNFIADYFETSSQCSKPGVIFLTKRSRQVCADPSEEWVQKYVSDLELSA
modifications: also: 125I-labelled when used as tracer
Usually IC50 stands for the concentration at which inhibition is half-maximal. A lower IC50 goes with greater potency. On to B2, for which, in assay [1], the “EC50, THP-1 cell migration” value was found to be 0.5 nM. Further, in assay [1], the “fold decrease in potency in THP-1 cell chemotaxis relative to CCL15Δ24/LKN-1” value is approximately 3 fold. Moreover, the IC50 in assay [3] worked out at 0.3 nM; in assay [4], 0.15 nM.

B3: CCXP5 (peptide)
peptide: MLWRRKIGPQMT
As to B3, in assay [5], the “potency for receptor signaling in L1.2-FPRL1 cells, relative to SHAAGtide” value worked out at 3 fold.

B4: CCL23β Δ24 (ligand)
chain: MLWRRKIGPQMTLSHAAGFHATSADCCISYTPRSIPCSLLESYFETNSECSKPGVIFLTKKGRRFCANPSDKQVQVCMRMLKLDTRIKTRKN
notes: Begins with the 18-residue SHAAGtide insertion; R&D Systems catalog item; also called CCLβΔ24
Turning to B4, the concentration for half-maximal inhibition (IC50) came out at 210 nM in assay [6], 4.5 nM in assay [3], 20 nM in assay [4] and 35 nM in assay [7]. Moreover, the “fold increase in binding activity over full-length CCL23β” value in assay [2] was more than 10 fold.

B5: SHAAGtide (MLWRRKIGPQMTLSHAAG) (peptide)
peptide: MLWRRKIGPQMTLSHAAG
notes: Synthetic 18-residue peptide; also called CCXP1; SHAAGtide peptide
For the molecule B5, the concentration for half-maximal inhibition (IC50) in assay [6] was 280 nM; in assay [7], 10 nM. The “EC50 in functional assays” value in assay [5] fell in the range of 10 to 30 nM. The binding result in assay [8] is reported as “no binding”.

B6: SHAAGtide lacking the N-terminal amino acid (Met) (peptide)
peptide: LWRRKIGPQMTLSHAAG
With B6, in assay [5], the “fold decrease in potency for receptor signaling in L1.2-FPRL1 cells, relative to SHAAGtide” value was approximately 10 fold.

B7: CCL15Δ24/LKN-1 (68aa) (ligand)
chain: SFHFAADCCTSYISQSIPCSLMKSYFETSSECSKPGVIFLTKKGRQVCAKPSGPGVQDCMKKLKPYSI
On to B7, for which the “EC50, THP-1 cell chemotaxis” value in assay [1] came out at 0.06 nM.

B8: CCL15/MIP-1δ digested with PMN sup #1 (ligand)
chain: VLNSFHFAADCCTSYISQSIPCSLMKSYFETSSECSKPGVIFLTKKGRQVCAKPSGPGVQDCMKKLKPYSI
In the case of B8, the EC50, THP-1 cell chemotaxis in assay [1] was 0.25 nM.

B9: CCL23/CKβ8 digested with chymase (ligand)
chain: HATSADCCISYTPRSIPCSLLESYFETNSECSKPGVIFLTKKGRRFCANPSDKQVQVCMRMLKLDTRIKTRKN
In assay [1], B9 registered an EC50, THP-1 cell chemotaxis of 0.05 nM and a fold decrease of EC50 against undigested CCL23/CKβ8, THP-1 cell chemotaxis of 50 fold.

B10: CCL23α (CCL23/CKβ8, 22-120) (ligand)
chain: RVTKDAETEFMMSKLPLENPVLLDRFHATSADCCISYTPRSIPCSLLESYFETNSECSKPGVIFLTKKGRRFCANPSDKQVQVCMRMLKLDTRIKTRKN
B10: in assay [1], the “EC50, THP-1 cell chemotaxis” value was 2.5 nM.

B11: CCL23/CKβ8 digested with PMN sup #1 (ligand)
chain: LLDRFHATSADCCISYTPRSIPCSLLESYFETNSECSKPGVIFLTKKGRRFCANPSDKQVQVCMRMLKLDTRIKTRKN
As for B11, in assay [1], the EC50, THP-1 cell chemotaxis stood at 0.15 nM.

B12: CCL15/MIP-1δ digested with chymase (ligand)
chain: AADCCTSYISQSIPCSLMKSYFETSSECSKPGVIFLTKKGRQVCAKPSGPGVQDCMKKLKPYSI
As for B12, in assay [1], the EC50, THP-1 cell chemotaxis stood at 0.05 nM and the fold increase of potency in THP-1 cell migration over full-length CCL15/MIP-1δ is 1000 fold.

B13: CCL23α Δ24 (CCL23Δ24/MPIF-1, 46-120) (ligand)
chain: RFHATSADCCISYTPRSIPCSLLESYFETNSECSKPGVIFLTKKGRRFCANPSDKQVQVCMRMLKLDTRIKTRKN
notes: Recombinant CCL23/CKβ8 lacking the N-terminal 24 residues
In the case of B13, in assay [1], the “EC50, THP-1 cell chemotaxis” value worked out at 0.09 nM. In addition, the “fold increase in binding activity over full-length CCL23α” value in assay [2] is more than 10 fold.

B14: CCL15/MIP-1δ (92aa) (ligand)
chain: QFINDAETELMMSKLPLENPVVLNSFHFAADCCTSYISQSIPCSLMKSYFETSSECSKPGVIFLTKKGRQVCAKPSGPGVQDCMKKLKPYSI
Take B14: the “EC50, THP-1 cell chemotaxis” value in assay [1] came to 50 nM.
